In the assay the target is His6-tagged MogR_(1-162) (Listeria monocytogenes) (UniProt P0DJO8). Put plainly: crystal structure.

A word on the stoichiometry N: it is a count of units in the complex or per binding partner. “His6-tagged MogR_(1-162) (from UniProt P0DJO8 1-162) (domain or fragment)” registered a stoichiometry N of 2.

The record behind these values is PMC2712671.
